T1: thermostable variant of Streptomyces mobaraensis transglutaminase (Streptomyces mobaraensis, UniProt P81453 79-407)
T1 sequence: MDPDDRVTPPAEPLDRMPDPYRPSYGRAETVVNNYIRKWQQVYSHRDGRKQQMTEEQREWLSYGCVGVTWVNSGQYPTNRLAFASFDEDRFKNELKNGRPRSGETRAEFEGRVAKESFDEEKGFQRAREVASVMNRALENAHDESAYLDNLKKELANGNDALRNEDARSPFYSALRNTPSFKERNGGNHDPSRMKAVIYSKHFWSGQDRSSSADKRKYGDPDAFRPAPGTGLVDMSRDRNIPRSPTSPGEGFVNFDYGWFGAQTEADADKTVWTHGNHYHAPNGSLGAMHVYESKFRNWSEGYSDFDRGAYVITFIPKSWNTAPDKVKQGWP


Experiments:
[1] = target: T1, thermostable variant of Streptomyces …; experiment: cell-based or functional assay
[2] = target: T1, thermostable variant of Streptomyces …; experiment: cell-based or functional assay; remark: listed apart in the source

Binder	Improvement in pH responsiveness of inhibitory peptide relative to WT [1] [fold]	Improvement in binding affinity of inhibitory peptide relative to WT [2] [fold]
MDNGAGSETKSYAETYRLTADDVANINALNESAPAASSAGPSFRAP [pro-peptide variant E7S]	> 5	> 1.2
MDNGAGEQTKSYAETYRLTADDVANINALNESAPAASSAGPSFRAP [pro-peptide variant E8Q]	> 5	> 1.2
MDNGAGEETKSYAETYRLTADAVANINALNESAPAASSAGPSFRAP [pro-peptide variant D22A]	> 1.2	> 1.2
MDNGAGEETKSYAETYRLTAMDVANINALNESAPAASSAGPSFRAP [pro-peptide variant D21M]	> 5	> 1.2
MDNGAGEETKSYAETYRLTAVDVANINALNESAPAASSAGPSFRAP [pro-peptide variant D21V]	> 1.2	> 1.2
MDNGAGEETKSYAETYRITADDVANINALNESAPAASSAGPSFRAP [pro-peptide variant L18I]	> 1.2	> 1.2
MDNGAGEETKSYAETYRLTAFDVANINALNESAPAASSAGPSFRAP [pro-peptide variant D21F]	> 1.2	> 1.2
MDNGAGEEAKSYAETYRLTADDVANINALNESAPAASSAGPSFRAP [pro-peptide variant T9A]	> 1.2	> 1.2
MDNGAGTETKSYAETYRLTADDVANINALNESAPAASSAGPSFRAP [pro-peptide variant E7T]	> 1.2	> 1.2
MDNGAGEETKSYASTYRLTADDVANINALNESAPAASSAGPSFRAP [pro-peptide variant E14S]	> 5	> 1.2
MDNGAGEETKSYAEVYRLTADDVANINALNESAPAASSAGPSFRAP [pro-peptide variant T15V]	> 1.2	> 1.2
MDNGAGEEVKSYAETYRLTADDVANINALNESAPAASSAGPSFRAP [pro-peptide variant T9V]	> 1.2	> 1.2
MSNGAGEETKSYAETYRLTADDVANINALNESAPAASSAGPSFRAP [pro-peptide variant D2S]	> 1.2	> 1.2
MDNGAGENTKSYAETYRLTADDVANINALNESAPAASSAGPSFRAP [pro-peptide variant E8N]	> 1.2	> 1.2
MDNGAGETTKSYAETYRLTADDVANINALNESAPAASSAGPSFRAP [pro-peptide variant E8T]	> 1.2	> 1.2
MDNGAGVETKSYAETYRLTADDVANINALNESAPAASSAGPSFRAP [pro-peptide variant E7V]	> 5	> 1.2
MDNGAGERTKSYAETYRLTADDVANINALNESAPAASSAGPSFRAP [pro-peptide variant E8R]	> 1.2	> 1.2

Binder	Improvement in pH responsiveness of inhibitory peptide relative to WT [1] [fold]	Improvement in binding affinity of inhibitory peptide relative to WT [2] [fold]
MDNGAGEEHKSYAETYRLTADDVANINALNESAPAASSAGPSFRAP [pro-peptide variant T9H]	> 1.2	> 1.2
MDNGAGEEKKSYAETYRLTADDVANINALNESAPAASSAGPSFRAP [pro-peptide variant T9K]	> 1.2	> 1.2
MDNGAGEELKSYAETYRLTADDVANINALNESAPAASSAGPSFRAP [pro-peptide variant T9L]	> 1.2	> 1.2
MDNGAGEEGKSYAETYRLTADDVANINALNESAPAASSAGPSFRAP [pro-peptide variant T9G]	> 1.2	> 1.2
MDNGAGEETKSYAEDYRLTADDVANINALNESAPAASSAGPSFRAP [pro-peptide variant T15D]	> 1.2	> 1.2
MDNGAGEEYKSYAETYRLTADDVANINALNESAPAASSAGPSFRAP [pro-peptide variant T9Y]	> 1.2	> 1.2
MDNGAGCETKSYAETYRLTADDVANINALNESAPAASSAGPSFRAP [pro-peptide variant E7C]	> 1.2	> 1.2
MTNGAGEETKSYAETYRLTADDVANINALNESAPAASSAGPSFRAP [pro-peptide variant D2T]	> 1.2	> 1.2
MDNGAGEERKSYAETYRLTADDVANINALNESAPAASSAGPSFRAP [pro-peptide variant T9R]	> 1.2	> 1.2
MDNGAGEETKSYAETYRLTASDVANINALNESAPAASSAGPSFRAP [pro-peptide variant D21S]	> 1.2	> 1.2
MDNGAGEETKSYAQTYRLTADDVANINALNESAPAASSAGPSFRAP [pro-peptide variant E14Q]	> 1.2	> 1.2
MDNGAGLETKSYAETYRLTADDVANINALNESAPAASSAGPSFRAP [pro-peptide variant E7L]	> 1.2	> 1.2
MDNGAGELTKSYAETYRLTADDVANINALNESAPAASSAGPSFRAP [pro-peptide variant E8L]	> 1.2	> 1.2
MDNGAGECTKSYAETYRLTADDVANINALNESAPAASSAGPSFRAP [pro-peptide variant E8C]	> 1.2	> 1.2
MDNGAGEEWKSYAETYRLTADDVANINALNESAPAASSAGPSFRAP [pro-peptide variant T9W]	> 1.2	> 1.2
MDNGAGEETKSYAETYRLTACDVANINALNESAPAASSAGPSFRAP [pro-peptide variant D21C]	> 1.2	> 1.2

Reference: patent US20250304927A1, “PRO-PEPTIDE VARIANTS FOR MODULATING ACTIVITY OF TRANSGLUTAMINASES” (CURIE CO. INC., priority 2022, published 2025)
